Measured values as given in patent publication US20090269346A1 (RAPTOR PHARMACEUTICAL, published 2009).
Where a chain is given by its changes, count along the chain named. Names and notes keep the numbering of the source.

T1: RAP-IDU (fusion of RAP and human α-L-iduronidase) (human, UniProt P35475 28-653, limits assumed)
T1 construct: iduronidase served as reporter
T1 sequence: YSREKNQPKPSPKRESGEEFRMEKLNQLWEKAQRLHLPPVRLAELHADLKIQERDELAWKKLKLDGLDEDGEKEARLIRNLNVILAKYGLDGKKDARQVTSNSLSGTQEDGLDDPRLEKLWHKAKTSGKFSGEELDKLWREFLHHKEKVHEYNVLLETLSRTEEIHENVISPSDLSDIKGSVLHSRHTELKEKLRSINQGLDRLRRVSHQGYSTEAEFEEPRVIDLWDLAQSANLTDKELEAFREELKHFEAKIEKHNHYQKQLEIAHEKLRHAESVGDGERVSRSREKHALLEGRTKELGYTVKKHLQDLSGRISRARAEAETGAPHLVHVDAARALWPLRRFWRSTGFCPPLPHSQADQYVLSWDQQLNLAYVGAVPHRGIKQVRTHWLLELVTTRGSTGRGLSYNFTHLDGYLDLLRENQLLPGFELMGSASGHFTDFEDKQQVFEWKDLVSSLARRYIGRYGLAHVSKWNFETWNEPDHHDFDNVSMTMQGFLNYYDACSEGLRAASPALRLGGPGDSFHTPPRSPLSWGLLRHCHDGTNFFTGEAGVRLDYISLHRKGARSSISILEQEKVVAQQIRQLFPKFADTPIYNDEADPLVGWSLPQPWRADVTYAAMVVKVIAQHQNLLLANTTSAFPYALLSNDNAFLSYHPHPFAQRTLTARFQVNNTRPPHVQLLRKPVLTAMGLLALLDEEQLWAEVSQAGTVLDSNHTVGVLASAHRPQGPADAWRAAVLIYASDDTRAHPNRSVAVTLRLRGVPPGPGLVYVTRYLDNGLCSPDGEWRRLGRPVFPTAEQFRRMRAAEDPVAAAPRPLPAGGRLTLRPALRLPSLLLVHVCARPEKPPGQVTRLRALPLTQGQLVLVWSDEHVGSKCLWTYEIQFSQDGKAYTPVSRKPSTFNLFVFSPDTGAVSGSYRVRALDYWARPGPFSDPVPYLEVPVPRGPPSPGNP

B1: LRP6 CR12 (receptor, human, UniProt O75581 1247-1322, looked up)
chain: PTCSPQQFTCFTGEIDCIPVAWRCDGFTECEDHSDELNCPVCSESQFQCASGQCIDGALRCNGDANCQDKSDEKNC
notes: range 1247-1322; also called L6 CR12; not shown: N-terminal hexahistidine and S-peptide from pET30(+)a
B2: LRP6 CR1-3 (receptor, human, UniProt O75581 1247-1363, looked up)
chain: PTCSPQQFTCFTGEIDCIPVAWRCDGFTECEDHSDELNCPVCSESQFQCASGQCIDGALRCNGDANCQDKSDEKNCEVLCLIDQFRCANGQCIGKHKKCDHNVDCSDKSDELDCYPT
notes: range 1247-1363; also called L6 CR1-3; not shown: N-terminal hexahistidine and S-peptide from pET30(+)a
B3: VLDLR CR6-8 (receptor)
chain: not shown
notes: range 235-358; also called V CR6-8; not shown: N-terminal hexahistidine and S-peptide from pET30(+)a
B4: RAP d3 E217K (ligand)
chain: LDRLRRVSHQGYSTEAKFEEPRVIDLWDLEQSANLTDKELEAFREELKHFEAKIEKHNHYQKQLEIAHEKLRHAESVGDGERVSRSREKHALLEGRTKELGYTVKKHLQDLSGRISRAR
notes: forward mutant of wild-type RAP d3; also called RAP E217K; not shown: vector-encoded N-terminal tags of pET30(+)a
B5: RAP d3 E251K, K256A, K270E (ligand)
chain: B4 chain with K17E, E51K, K56A, K70E
notes: forward mutant of wild-type RAP d3; also called RAP E251K, K256A, K270E; not shown: vector-encoded N-terminal tags of pET30(+)a
B6: RAP d3 K270E (ligand)
chain: B4 chain with K17E, K70E
notes: forward mutant of wild-type RAP d3; also called RAP K270E; not shown: vector-encoded N-terminal tags of pET30(+)a
B7: RAP d3 K256A, K270E (ligand)
chain: B4 chain with K17E, K56A, K70E
notes: forward mutant of wild-type RAP d3; also called RAP K256A, K270E; not shown: vector-encoded N-terminal tags of pET30(+)a
B8: RAP d3 E251K (ligand)
chain: B4 chain with K17E, E51K
notes: forward mutant of wild-type RAP d3; also called RAP E251K; not shown: vector-encoded N-terminal tags of pET30(+)a
B9: RAP d3 H249Y (ligand)
chain: B4 chain with K17E, H49Y
notes: forward mutant of wild-type RAP d3; also called RAP H249Y; not shown: vector-encoded N-terminal tags of pET30(+)a
B10: RAP d3 E251K, K270E (ligand)
chain: B4 chain with K17E, E51K, K70E
notes: forward mutant of wild-type RAP d3; also called RAP E251K, K270E; not shown: vector-encoded N-terminal tags of pET30(+)a
B11: LRP2 CR89 (receptor)
chain: not shown
notes: domain: CR8 and CR9; also called YVWR; L2 CR89; not shown: N-terminal hexahistidine and S-peptide from pET30(+)a

Legend:
[1] = target: T1, RAP-IDU (fusion of RAP and human …); assay: solid-phase assay: CR protein coated on the plate, RAP-IDU titrated, bound iduronidase activity read as rfu
Protocol: Initially, the binding of wild-type RAP to each CR pair or triplet was measured by solid-phase assay. Purified, refolded CR proteins were bound to Maxisorp plates during overnight incubation at 4° C. CR-loaded wells were blocked by resuspending in TBS Superblock (Pierce) supplemented with 5 mM CaCl2 (blocking buffer) and incubating for 1 hour at room temperature. Blocking buffer was removed and wells were washed once in TBS supplemented with 5 mM CaCl2 and 0.05% Tween-20 (wash buffer). Washed wells were incubated with 10 nM purified RAP-IDU (Tanimoto, et al., (2005) Br J Cancer 92, 278-283) for 2 hours at room temperature in blocking buffer. […] Wells were washed four times with wash buffer and resuspended in acidic PBS pH 5.6 supplemented with 200 μg/mL BSA (assay buffer). Iduronidase activity was measured as described previously using the fluorescent substrate 4-MU-α-L-iduronide (Tanimoto, et al., (2005) Br J Cancer 92, 278-283). No binding of RAP-IDU to empty wells was measured. […] RAP bound more weakly to other CR proteins, with dissociation constants from 30 to over 1000 nM.

LRP2 CR89 [2] = target: B11; assay: solid-phase binding assay: CR protein coated on the plate, ligand titrated, anti-RAP polyclonal and HRP secondary, OD 450 nm
Protocol: (§1) Solid phase binding assays-Purified, refolded CR protein (1 μg) was bound to Nunc Maxisorp™ 96-well plates in TBS pH 8 supplemented with 5 mM CaCl₂ (TBSC) overnight at 4° C. Wells were washed with TBSC and then blocked with TBSC containing 2% bovine serum albumin (BSA). RAP ligands were then incubated with the immobilized receptor at a range of concentrations for 2 hours in the above blocking buffer supplemented with 0.05% Tween-20 at room temperature. Control wells contained no added ligand. As an additional control, to determine whether the absence of calcium affected binding, 10 mM EGTA was included in the incubation medium for some samples. Wells were washed with TBSTC and bound ligands detected with polyclonal anti-RAP (BP41/42, 1:1,000, BioMarin). Excess primary antibody was removed and wells washed before incubation with the secondary antibody, HRP-conjugated goat anti rabbit IgG (Bio-Rad). After washing, TMB substrate solutions (Bio-Rad) were added to detect HRP. Color development was stopped with 1N HCl. Absorption at 450 nm was measured with a microplate spectrophotometer (Molecular Devices). Data were plotted and Kd values derived by non-linear regression with the assumption of single-site binding (GraphPad Prism).
(§2) Next, binding of RAP d3 and RAPv2A d3 proteins to LRP1 CR3-5 and LRP2 CR89 was assessed. In order to understand the relative contributions of each RAPv2A d3 mutation to differences in affinity, we also prepared a number of RAPv2A d3 revertants and RAP d3 forward mutants, all comprising sequence variants intermediate between RAPv2A d3 and wild-type RAP d3 (FIGS. 7A and B, Table 1). Samples were tested in triplicate and experiments were repeated at least once. Values from different experiments were combined and a single mean and standard deviation obtained for each concentration of ligand tested. OD values from uncoated wells, receptor-coated wells incubated with buffer alone, and uncoated wells incubated with the highest ligand concentration all gave similar values for all conditions tested. All OD values were corrected by subtracting the OD obtained from uncoated wells.

LRP2 CR89 [3] = target: B11; assay: solid-phase assay, coated CR protein, anti-RAP, OD450
Protocol: (§3) Percent of maximum binding is the ratio of the OD at the highest concentration tested for each ligand and the highest OD measured for all such ligands at that concentration.
as §1
as §2, with “tested.” for “tested. OD values from uncoated wells, receptor-coated wells incubated with buffer alone, and uncoated wells incubated with the highest ligand concentration all gave similar values for all conditions tested. All OD values were corrected by subtracting the OD obtained from uncoated wells.”

LRP1 CR3-5 = target: T2, LRP1 CR3-5 (human); assay: as above
T2 construct: range 852-973; Amplified from human cDNA; also called L1 CR3-5
Protocol: as §3, §1
as §2, with “tested.” for “tested. OD values from uncoated wells, receptor-coated wells incubated with buffer alone, and uncoated wells incubated with the highest ligand concentration all gave similar values for all conditions tested. All OD values were corrected by subtracting the OD obtained from uncoated wells.”

Sequence of LRP2 CR89 (P98164 1025-1102): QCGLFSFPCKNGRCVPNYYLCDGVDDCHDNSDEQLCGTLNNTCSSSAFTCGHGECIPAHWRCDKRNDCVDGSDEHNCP
T2 sequence (Q07954 852-973): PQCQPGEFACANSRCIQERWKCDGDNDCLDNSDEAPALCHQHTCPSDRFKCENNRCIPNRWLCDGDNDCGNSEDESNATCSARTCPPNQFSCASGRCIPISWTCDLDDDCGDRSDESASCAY

| Binder | Kd [1] | binding result (LRP2 CR89 [2]) | % max (percent of maximum binding) (LRP2 CR89 [3]) | % max (percent of maximum binding) (LRP1 CR3-5) | Kd (LRP1 CR3-5) | Kd (LRP2 CR89 [3]) |
| --- | --- | --- | --- | --- | --- | --- |
| B1 | > 1 µM |  |  |  |  |  |
| B2 | 0.328 µM |  |  |  |  |  |
| B3 | 0.17 µM |  |  |  |  |  |
| B4 |  | no binding (tested: 100 nM) | 5% | 91% | 0.009 µM |  |
| B5 |  |  | 40% | 2% |  | 0.114 µM |
| B6 |  | no binding (tested: 100 nM) | 2% | 4% |  |  |
| B7 |  | no binding (tested: 100 nM) | 3% | 2% |  |  |
| B8 |  | no binding (tested: 100 nM) | 5% | 100% | 0.007 µM |  |
| B9 |  | no binding (tested: 100 nM) | 2% | 90% | 0.028 µM |  |
| B10 |  | no binding (tested: 100 nM) | 2% | 4% |  |  |
| B11 | 0.029 µM |  |  |  |  |  |
